Test results published in US20200164032A1 (WASHINGTON UNIVERSITY, published 2020).

Columns and labels:
murine CCL3 = biological target: T1, murine CCL3 (mouse, UniProt P10855 24-92)
T1 sequence: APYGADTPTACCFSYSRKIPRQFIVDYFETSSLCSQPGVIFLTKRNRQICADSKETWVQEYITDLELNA

human CCL2 = biological target: T2, human CCL2 (human, UniProt P13500 24-99); assay: SPR, R17 on CM5 chip; KD,kin = kd/ka from the global fit
T2 construct: also called hCCL2

CCL9 = biological target: T3, CCL9 (UniProt P51670 22-122); assay: as above
T3 sequence: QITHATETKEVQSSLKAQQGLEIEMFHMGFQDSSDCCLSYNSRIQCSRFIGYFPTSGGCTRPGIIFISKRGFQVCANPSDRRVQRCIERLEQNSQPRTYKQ

murine CCL20 = biological target: T4, murine CCL20 (mouse, UniProt O89093 28-97); assay: as above
T4 construct: also called mCCL20
T4 sequence: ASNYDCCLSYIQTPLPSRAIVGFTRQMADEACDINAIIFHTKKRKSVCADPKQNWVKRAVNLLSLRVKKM

T2 sequence (P13500 24-99 limits assumed): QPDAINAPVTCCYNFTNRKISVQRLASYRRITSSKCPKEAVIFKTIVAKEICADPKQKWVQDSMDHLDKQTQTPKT

B1: R17 chemokine decoy receptor of Rodent herpesvirus Peru (RHVP), wild type, C-terminal 8-His fusion (receptor)
chain: GPVGEPVASEINEASKVSSRLLTQDILFRKDRQATISLPIKLPVEDIITQTCDKITYGPLKFLDLLEKETAVLPLSTDITCPACLGRAVLVGKWECPAHVAVNESDLTVFGPNKEEHVPQFVTVQQPSDGKMQRLFFAKFLGTEESLAVLRVPGPDGHLCIQEALIHFKELSGAGVCSLWKANDSREEGLEMKQVDCLETTVLENQTCIATTLSKKIYHRLYCGERLMTGGQVSTRVLLTALGFYKRQPYTFHRVPKGMVYVHLIDSGSEDYMEYSECEEVTPGRYEDKQISYTFYTDLFQTADGEPVLASVWGTSGLKDSAYESCAFVIPTKGRRKLVPRRIMSKCYPFRLTYHPSTMTVRLDVRVEKHHGATDQGFVFLKMESGTYSEGREYYLDRVLWGEDSSTNNVLQ
notes: not shown: C-terminal 8-His tag
Kd (murine CCL3): 1.4 nM | Kd (human CCL2): 7.5 nM | Kd (CCL9): 4.5 nM | Kd (murine CCL20): 4.7 nM
